Tests used:
[1] = tested on: toxic myocarditis caused by Adriamycin in rat; test: Serum troponin T (cTnT) level, Adriamycin rat model; type: in vivo, SD rat; details: Adriamycin model, (I)
Method: 2 ml of arterial blood was withdrawn, serum extracted, frozen and stored at −20° C., determination of serum cTnT content was performed with electrochemistry irradiate method submitted to be carried out by Clinical Laboratory of Zhong Shan Hospital.

[2] = tested on: heart failure in rat caused by ligation of coronary artery; test: Echocardiography heart function, heart failure by ligation of coronary artery; type: in vivo, SD rat
Rhesus = Rhesus long-term toxicity study, 3 weeks iv plus 3 weeks convalescence; details: 7.5, 15, 75 μg/kg/d iv 3 weeks
[3] = tested on: congestive heart failure caused by inferior vena cava constriction in dog; test: Echocardiography (EF, FS, CO), inferior vena cava constriction (TIVCC) dog; type: in vivo, crossbred dog
Method: […] dosage level of 1, 3 and 10 μg/kg respectively of rhNRG-1 β was diluted with preparation buffer solution (vehicle) to needed concentration, intravenous injection once everyday for consecutive 5 days.
3% pentobarbital sodium (30 mg/kg) was injected into the peripheral vein to anesthetize the dog, then trachea intubated. […] Bred for 1 week, echocardiography performed according to the amount of ascites, when EF reduced by about 20% or dilatation of the left heart by about 20%, stable low cardiac output congestive heart failure animal model was established. Then intravenous injection of the drug was carried out for consecutive 5 days.
• Heart function index determination was carried out under anesthesia of the dog prior to the operation, prior to and 5-day after the drug administration. Major index included: • EF (Ejection Fraction): heart ejection fraction, i.e., ratio of difference between end diastolic volume of the ventricle (EDV) and end systolic volume of ventricle (ESV) and end diastolic volume of ventricle, being general index used for reflecting pumping function of ventricle; especially reflecting the systolic function; • FS: ventricular short axis shortening rate, being index reflecting contraction function of ventricle, • CO: cardiac output, i.e. blood volume ejected by the heart per minute. 6.3.3.2 Hemodynamic Index Determination

[4] = 1 μg/kg group, prior to drug administration
[5] = 1 μg/kg iv daily 5 days, after drug administration
[6] = 3 μg/kg group, prior to drug administration
[7] = 3 μg/kg iv daily 5 days, after drug administration
[8] = 10 μg/kg group, prior to drug administration
[9] = 10 μg/kg iv daily 5 days, after drug administration

B1: rhNRG-1 β: Recombinant human neuregulin fragment of 61 amino acid (SEQ ID NO:4), 3 disulfide bonds, expressed in E. coli (protein, listed as Homo sapiens)
chain: SHLVKCAEKEKTFCVNGGECFMVKDLSNPSRYLCKCPNEFTGDRCQNYVMASFYKAEELYQ
modifications: disulfide (positions not given here)
[1]; 10 μg/kg iv qd × 10 d
  cTnT: 0.074 ± 0.024 ng/mL
[1]; 10 μg/kg iv qd × 10 d, listed as rhNRG-1β
  cTnT: 0.074 ± 0.024 ng/mL
[1]; 20 μg/kg iv qd × 10 d
  cTnT: 0.031 ± 0.006 ng/mL
[1]; 20 μg/kg iv qd × 10 d, listed as rhNRG-1β
  cTnT: 0.031 ± 0.006 ng/mL
[1]; 40 μg/kg iv qd × 10 d
  cTnT: 0.025 ± 0.011 ng/mL
[1]; 40 μg/kg iv qd × 10 d, listed as rhNRG-1β
  cTnT: 0.025 ± 0.011 ng/mL
[2]; 5 μg/kg, after ligation prior to drug administration, long-term monitoring
  EF value: 53.1 ± 12.8%
[2]; 20 μg/kg
  time the changes of ejection fraction maintain after the drug administration: about 35 days
[2]; 20 μg/kg, 5-day after drug administration and 35-day after drug withdrawal
  EF value: 73.0 ± 20.3 %
Rhesus
  animal death: No animal death associated with the testing drug
[3]; 1 μg/kg group, preoperation
  CO: 4.2 ± 0.6 L/min
  EF: 82.8 ± 3.0%
  FS: 50.8 ± 4.0%
[3]; [4]
  CO: 2.4 ± 0.5 L/min
  EF: 57.7±10.9%
  FS: 30.6±8.0%
[3]; 1 μg/kg group, prior to drug administration, listed as rhNRG-1β
  CO: 2.4 ± 0.5 L/min
[3]; [5]
  CO: 3.7 ± 0.8 L/min
  EF: 70.4±8.4%
  FS: 39.7±5.7%
[3]; 1 μg/kg iv daily 5 days, after drug administration, listed as rhNRG-1β
  CO: 3.7 ± 0.8 L/min
[3]; 3 μg/kg group, preoperation
  CO: 4.3 ± 0.8 L/min
  EF: 84.7 ± 2.8%
  FS: 51.7 ± 2.9%
[3]; [6]
  CO: 2.1 ± 0.7 L/min
  EF: 58.0 ± 8.3%
  FS: 29.9 ± 6.4%
[3]; [7]
  CO: 4.0 ± 0.9 L/min
  EF: 74.7 ± 4.6 %
  FS: 42.4 ± 4.4 %
[3]; 10 μg/kg group, preoperation
  CO: 4.3 ± 0.6 L/min
  EF: 82.9 ± 2.6%
  FS: 50.5 ± 3.3%
[3]; [8]
  CO: 1.9 ± 0.3 L/min
  EF: 55.8 ± 10.0%
  FS: 27.7 ± 5.6%
[3]; [9]
  CO: 3.6 ± 0.7 L/min
  EF: 74.7 ± 3.2 %
  FS: 41.5 ± 3.1 %
[3]; 1, 3 and 10 μg/kg iv daily 5 days
  effect on heart rate: less effect on heart rate

Source: patent US9555076B2, “Neuregulin based methods and compositions for treating cardiovascular diseases” (Zensun (Shanghai) Science & Technology, Co., Ltd., priority 2002, dated 2017)
